Data on 125 variants can be found in paper PMC11969024 (2025).

To fix the notation:
B1: peptide HD2 (from tick evasin EVA4) / CCL17 (biotinylated, synthetic) (parent complex)
chain 1: EEDDYTAYAPLTCYFT
chain 2: ARGTNVGRECCLEYFKGAIPLRKLKTWYQTSEDCSRDAIVFVTVQGRAICSDPNNKRVKNAVKYLQSLERS
B2: peptide HD2 (from tick evasin EVA4) / CCL8 (biotinylated, synthetic) (parent complex)
chain 1: EEDDYTAYAPLTCYFT
chain 2: QPDSVSIPITCCFNVINRKIPIQRLESYTRITNIQCPKEAVIFKTKRGKEVCADPKERWVRDSMKHLDQIFQNLKP

The variants in the first test derive from B1.
As to chain 1 EEDDYTAYYPLTCYFT [chain 1 A9Y], the enrichment is -8.18 log2 (difference from the parental peptide).

Regarding chain 1 EEDDYTAYGPLTCYFT [chain 1 A9G], the enrichment is -7.21 log2 (difference from the parental peptide).

On to chain 1 EEDDYTAYEPLTCYFT [chain 1 A9E], for which the enrichment was -1.38 log2 (difference from the parental peptide).

Consider chain 1 EEDDYTAYWPLTCYFT [chain 1 A9W], for which the enrichment was -4.5 log2 (difference from the parental peptide).

As to chain 1 EEDDYTAYAPLTCYAT [chain 1 F15A], the enrichment is 0.597 log2 (difference from the parental peptide).

On to chain 1 EEDDYTAYAPLTCYRT [chain 1 F15R], for which the enrichment is 0.0833 log2 (difference from the parental peptide).

For the variant chain 1 EEDDYTAYAPLTCYKT [chain 1 F15K], the enrichment is 0.71 log2 (difference from the parental peptide).

Turning to chain 1 EEDDYTAYAPLTCYNT [chain 1 F15N], the enrichment is -1.55 log2 (difference from the parental peptide).

On to chain 1 EEDDYTAYAPLTCYTT [chain 1 F15T], for which the enrichment was 0.347 log2 (difference from the parental peptide).

In the case of chain 1 EEDDYTAYAPLTCYYT [chain 1 F15Y], the enrichment was 2.54 log2 (difference from the parental peptide).

As for chain 1 EEDDYTAYAPLTCYPT [chain 1 F15P], the enrichment is 1.23 log2 (difference from the parental peptide).

For chain 1 EEDDYTAYAPLTCYHT [chain 1 F15H], the enrichment was 0.105 log2 (difference from the parental peptide).

With chain 1 EEDDYTAYAPLTCYLT [chain 1 F15L], the enrichment was 0.236 log2 (difference from the parental peptide).

On to chain 1 EEDDYTGYAPLTCYFT [chain 1 A7G], for which the enrichment is 2.15 log2 (difference from the parental peptide).

As to chain 1 EEDDYTFYAPLTCYFT [chain 1 A7F], the enrichment is -3.04 log2 (difference from the parental peptide).

With chain 1 EEDDYTEYAPLTCYFT [chain 1 A7E], the enrichment is -0.527 log2 (difference from the parental peptide).

With chain 1 EEDDYTDYAPLTCYFT [chain 1 A7D], the enrichment is 0.474 log2 (difference from the parental peptide).

As to chain 1 EEDDYTMYAPLTCYFT [chain 1 A7M], the enrichment is 1.3 log2 (difference from the parental peptide).

chain 1 EEDDYTAYAPNTCYFT [chain 1 L11N]: the enrichment is -6.23 log2 (difference from the parental peptide).

In the case of chain 1 EEDDYTAYAPDTCYFT [chain 1 L11D], the enrichment was -9.19 log2 (difference from the parental peptide).

Take chain 1 EEDDYTAYAPETCYFT [chain 1 L11E]: the enrichment is -4.46 log2 (difference from the parental peptide).

In the case of chain 1 EEDDYTAYAPWTCYFT [chain 1 L11W], the enrichment was -0.813 log2 (difference from the parental peptide).

In the case of chain 1 EEDDYTAYAPKTCYFT [chain 1 L11K], the enrichment was 2.96 log2 (difference from the parental peptide).

On to chain 1 EEDSYTAYAPLTCYFT [chain 1 D4S], for which the enrichment was -4.05 log2 (difference from the parental peptide).

In the case of chain 1 EEDNYTAYAPLTCYFT [chain 1 D4N], the enrichment was -3.02 log2 (difference from the parental peptide).

On to chain 1 EEDRYTAYAPLTCYFT [chain 1 D4R], for which the enrichment was -4.61 log2 (difference from the parental peptide).

With chain 1 EEDIYTAYAPLTCYFT [chain 1 D4I], the enrichment was -4.19 log2 (difference from the parental peptide).

Consider chain 1 EEDPYTAYAPLTCYFT [chain 1 D4P], for which the enrichment was -2.13 log2 (difference from the parental peptide).

Regarding chain 1 EEDMYTAYAPLTCYFT [chain 1 D4M], the enrichment was -3.6 log2 (difference from the parental peptide).

chain 1 EEDDYAAYAPLTCYFT [chain 1 T6A]: the enrichment is 1.8 log2 (difference from the parental peptide).

For chain 1 EEDDYPAYAPLTCYFT [chain 1 T6P], the enrichment was -4.51 log2 (difference from the parental peptide).

For chain 1 EEDDYLAYAPLTCYFT [chain 1 T6L], the enrichment is -1.57 log2 (difference from the parental peptide).

Take chain 1 EEDDYVAYAPLTCYFT [chain 1 T6V]: the enrichment is -4.25 log2 (difference from the parental peptide).

In the case of chain 1 EEDDYRAYAPLTCYFT [chain 1 T6R], the enrichment is 0.942 log2 (difference from the parental peptide).

As to chain 1 EEDDYHAYAPLTCYFT [chain 1 T6H], the enrichment was 0.317 log2 (difference from the parental peptide).

As to chain 1 EEDDYYAYAPLTCYFT [chain 1 T6Y], the enrichment was 0.0769 log2 (difference from the parental peptide).

For the variant chain 1 ENDDYTAYAPLTCYFT [chain 1 E2N], the enrichment was -1.61 log2 (difference from the parental peptide).

With chain 1 EMDDYTAYAPLTCYFT [chain 1 E2M], the enrichment was -1.82 log2 (difference from the parental peptide).

For the variant chain 1 EKDDYTAYAPLTCYFT [chain 1 E2K], the enrichment was -0.857 log2 (difference from the parental peptide).

With chain 1 EHDDYTAYAPLTCYFT [chain 1 E2H], the enrichment is -1.27 log2 (difference from the parental peptide).

With chain 1 EEDDYTALAPLTCYFT [chain 1 Y8L], the enrichment was -8.14 log2 (difference from the parental peptide).

Take chain 1 EEDDYTACAPLTCYFT [chain 1 Y8C]: the enrichment is -9.78 log2 (difference from the parental peptide).

As for chain 1 EEDDYTAVAPLTCYFT [chain 1 Y8V], the enrichment was -8.87 log2 (difference from the parental peptide).

Take chain 1 EEDDYTAYAPLTMYFT [chain 1 C13M]: the enrichment is -2.5 log2 (difference from the parental peptide).

As for chain 1 EEDDYTAYAPLTTYFT [chain 1 C13T], the enrichment was -5.42 log2 (difference from the parental peptide).

In the case of chain 1 EEDDYTAYAPLTSYFT [chain 1 C13S], the enrichment was -8.83 log2 (difference from the parental peptide).

Turning to chain 1 EEDDYTAYAPLTNYFT [chain 1 C13N], the enrichment is -8.31 log2 (difference from the parental peptide).

Consider chain 1 EEDDYTAYAPLTQYFT [chain 1 C13Q], for which the enrichment was -6.89 log2 (difference from the parental peptide).

chain 1 EEDDGTAYAPLTCYFT [chain 1 Y5G]: the enrichment is -7.21 log2 (difference from the parental peptide).

For chain 1 EEDDSTAYAPLTCYFT [chain 1 Y5S], the enrichment is -7.62 log2 (difference from the parental peptide).

For chain 1 EEDDWTAYAPLTCYFT [chain 1 Y5W], the enrichment is 0.266 log2 (difference from the parental peptide).

As for chain 1 EEDDITAYAPLTCYFT [chain 1 Y5I], the enrichment is -6.15 log2 (difference from the parental peptide).

Consider chain 1 VEDDYTAYAPLTCYFT [chain 1 E1V], for which the enrichment was -0.847 log2 (difference from the parental peptide).

Turning to chain 1 AEDDYTAYAPLTCYFT [chain 1 E1A], the enrichment is 0.0959 log2 (difference from the parental peptide).

With chain 1 MEDDYTAYAPLTCYFT [chain 1 E1M], the enrichment was 0.0225 log2 (difference from the parental peptide).

For chain 1 DEDDYTAYAPLTCYFT [chain 1 E1D], the enrichment is 2.62 log2 (difference from the parental peptide).

As to chain 1 EEDDYTAYAPLTCLFT [chain 1 Y14L], the enrichment was -4.61 log2 (difference from the parental peptide).

For chain 1 EEDDYTAYAPLTCTFT [chain 1 Y14T], the enrichment was -3.79 log2 (difference from the parental peptide).

For chain 1 EEDDYTAYAGLTCYFT [chain 1 P10G], the enrichment was -9.32 log2 (difference from the parental peptide).

Turning to chain 1 EEDDYTAYAELTCYFT [chain 1 P10E], the enrichment was -6.42 log2 (difference from the parental peptide).

Turning to chain 1 EEDDYTAYAWLTCYFT [chain 1 P10W], the enrichment was -5.95 log2 (difference from the parental peptide).

As for chain 1 EELDYTAYAPLTCYFT [chain 1 D3L], the enrichment is -4.35 log2 (difference from the parental peptide).

chain 1 EEFDYTAYAPLTCYFT [chain 1 D3F]: the enrichment is -5.06 log2 (difference from the parental peptide).

Regarding chain 1 EETDYTAYAPLTCYFT [chain 1 D3T], the enrichment is -2.29 log2 (difference from the parental peptide).

chain 1 EEDDYTAYAPLTCYFV [chain 1 T16V]: the enrichment is -0.108 log2 (difference from the parental peptide).

For chain 1 EEDDYTAYAPLTCYFP [chain 1 T16P], the enrichment is 1.33 log2 (difference from the parental peptide).

On to chain 1 EEDDYTAYAPLMCYFT [chain 1 T12M], for which the enrichment was 1.75 log2 (difference from the parental peptide).

As to chain 1 EEDDYTAYAPLSCYFT [chain 1 T12S], the enrichment is -3.76 log2 (difference from the parental peptide).

For the variant chain 1 EEDDYTAYAPLKCYFT [chain 1 T12K], the enrichment was -2.78 log2 (difference from the parental peptide).

For the variant chain 1 EEDDYTAYAPLYCYFT [chain 1 T12Y], the enrichment was -0.855 log2 (difference from the parental peptide).

Consider chain 1 EEDDYTAYAPLDCYFT [chain 1 T12D], for which the enrichment is -7.76 log2 (difference from the parental peptide).

On to chain 1 EEDDYTAYAPLGCYFT [chain 1 T12G], for which the enrichment was -10.4 log2 (difference from the parental peptide).

For chain 1 EEDDYTAYAPLPCYFT [chain 1 T12P], the enrichment is -4.02 log2 (difference from the parental peptide).

Variants of B2 are the subject of a further test.
chain 1 C13K: the enrichment was -4.94 log2 (difference from the parental peptide).

chain 1 C13H: the enrichment is -2.17 log2 (difference from the parental peptide).

For chain 1 C13N, the enrichment is -3.72 log2 (difference from the parental peptide).

On to chain 1 C13W, for which the enrichment was -1.28 log2 (difference from the parental peptide).

Regarding chain 1 F15P, the enrichment is 2.45 log2 (difference from the parental peptide).

In the case of chain 1 F15W, the enrichment was 0.273 log2 (difference from the parental peptide).

On to chain 1 L11N, for which the enrichment was 0.274 log2 (difference from the parental peptide).

In the case of chain 1 L11W, the enrichment is -0.601 log2 (difference from the parental peptide).

On to chain 1 L11E, for which the enrichment is 0.712 log2 (difference from the parental peptide).

Turning to chain 1 L11H, the enrichment is 1.86 log2 (difference from the parental peptide).

With chain 1 L11F, the enrichment is -0.0302 log2 (difference from the parental peptide).

As for chain 1 Y8D, the enrichment is -7.06 log2 (difference from the parental peptide).

For chain 1 P10L, the enrichment is -8.02 log2 (difference from the parental peptide).

For chain 1 P10D, the enrichment was -7.93 log2 (difference from the parental peptide).

Take chain 1 P10C: the enrichment is -8.24 log2 (difference from the parental peptide).

Consider chain 1 P10R, for which the enrichment is -7.6 log2 (difference from the parental peptide).

With chain 1 D4P, the enrichment is -4.27 log2 (difference from the parental peptide).

For the variant chain 1 D4G, the enrichment is -2.42 log2 (difference from the parental peptide).

Regarding chain 1 D4S, the enrichment is -2.5 log2 (difference from the parental peptide).

Turning to chain 1 D4N, the enrichment was -2.35 log2 (difference from the parental peptide).

Regarding chain 1 D4R, the enrichment is -6.61 log2 (difference from the parental peptide).

Take chain 1 D3W: the enrichment was -2.86 log2 (difference from the parental peptide).

As for chain 1 D3F, the enrichment was -2.94 log2 (difference from the parental peptide).

Regarding chain 1 D3V, the enrichment was -3.08 log2 (difference from the parental peptide).

chain 1 E1Q: the enrichment was -0.418 log2 (difference from the parental peptide).

As for chain 1 E1A, the enrichment was -0.674 log2 (difference from the parental peptide).

With chain 1 E1R, the enrichment was -2.91 log2 (difference from the parental peptide).

As to chain 1 T12A, the enrichment was -0.122 log2 (difference from the parental peptide).

For chain 1 T12H, the enrichment is -0.0146 log2 (difference from the parental peptide).

As to chain 1 T12D, the enrichment is -1.11 log2 (difference from the parental peptide).

With chain 1 A9R, the enrichment is -0.86 log2 (difference from the parental peptide).

chain 1 A9N: the enrichment was -3.86 log2 (difference from the parental peptide).

Regarding chain 1 T6Q, the enrichment was 1.13 log2 (difference from the parental peptide).

As to chain 1 T6N, the enrichment was 0.795 log2 (difference from the parental peptide).

Consider chain 1 T6I, for which the enrichment is -5.53 log2 (difference from the parental peptide).

In the case of chain 1 A7S, the enrichment is 0.947 log2 (difference from the parental peptide).

In the case of chain 1 A7D, the enrichment is 2.55 log2 (difference from the parental peptide).

chain 1 A7E: the enrichment is 2.43 log2 (difference from the parental peptide).

As for chain 1 A7K, the enrichment is 0.582 log2 (difference from the parental peptide).

For chain 1 A7I, the enrichment was 0.0548 log2 (difference from the parental peptide).

For chain 1 Y14V, the enrichment was 1.05 log2 (difference from the parental peptide).

As to chain 1 Y14R, the enrichment is -0.632 log2 (difference from the parental peptide).

chain 1 Y14E: the enrichment was -0.645 log2 (difference from the parental peptide).

In the case of chain 1 Y5C, the enrichment is -7.1 log2 (difference from the parental peptide).

For the variant chain 1 Y5S, the enrichment is -5.16 log2 (difference from the parental peptide).

As for chain 1 Y5L, the enrichment was -0.265 log2 (difference from the parental peptide).

Consider chain 1 Y5M, for which the enrichment is -0.636 log2 (difference from the parental peptide).

Consider chain 1 T16C, for which the enrichment was -2.39 log2 (difference from the parental peptide).

Consider chain 1 T16K, for which the enrichment was 1.41 log2 (difference from the parental peptide).

In the case of chain 1 E2P, the enrichment was -2.32 log2 (difference from the parental peptide).

In the case of chain 1 E2S, the enrichment is -1.97 log2 (difference from the parental peptide).

As for chain 1 E2T, the enrichment is -1.89 log2 (difference from the parental peptide).
